# From article PMC9482650, “Quantitative fragmentomics allow affinity mapping of interactomes” (Nature Communications, 2022)
# T1: APBA3_1, O96018
# T1 sequence (O96018 389-490, limits assumed, looked up): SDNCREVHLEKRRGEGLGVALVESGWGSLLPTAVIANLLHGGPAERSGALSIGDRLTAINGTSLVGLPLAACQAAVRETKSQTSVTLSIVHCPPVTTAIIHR
# T2: DVL3, Q92997
# T2 sequence (Q92997 244-331, limits assumed, looked up): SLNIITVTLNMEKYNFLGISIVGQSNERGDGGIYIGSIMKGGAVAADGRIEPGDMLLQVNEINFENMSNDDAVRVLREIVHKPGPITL
# T3: SHANK1, Q9Y566
# T3 sequence (Q9Y566 658-767, limits assumed, looked up): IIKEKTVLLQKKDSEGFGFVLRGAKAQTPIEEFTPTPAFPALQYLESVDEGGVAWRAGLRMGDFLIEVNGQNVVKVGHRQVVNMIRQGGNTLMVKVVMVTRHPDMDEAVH
# T4: CARD11, Q9BXL7
# T4 sequence (Q9BXL7 662-765, limits assumed, looked up): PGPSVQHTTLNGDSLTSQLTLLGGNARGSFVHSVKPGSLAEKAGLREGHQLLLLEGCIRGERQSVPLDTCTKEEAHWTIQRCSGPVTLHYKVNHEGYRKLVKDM
# T5: SNTB1, Q13884
# T5 sequence (Q13884 107-205, limits assumed, looked up): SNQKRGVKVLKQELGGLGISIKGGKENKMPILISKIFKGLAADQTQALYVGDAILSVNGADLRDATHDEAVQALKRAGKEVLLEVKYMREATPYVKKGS
# T6: PDZD7_3, Q9H5P4
# T6 sequence (Q9H5P4 857-944, limits assumed, looked up): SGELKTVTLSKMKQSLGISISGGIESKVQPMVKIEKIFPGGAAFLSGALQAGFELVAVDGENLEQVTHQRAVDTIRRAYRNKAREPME
# T7: SYNJ2BP, P57105
# T7 sequence (P57105 8-110, limits assumed, looked up): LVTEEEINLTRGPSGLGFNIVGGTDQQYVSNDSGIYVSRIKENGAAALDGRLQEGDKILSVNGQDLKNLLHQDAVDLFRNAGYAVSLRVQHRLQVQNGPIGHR
# T8: SNTA1, Q13424
# T8 sequence (Q13424 82-180, limits assumed, looked up): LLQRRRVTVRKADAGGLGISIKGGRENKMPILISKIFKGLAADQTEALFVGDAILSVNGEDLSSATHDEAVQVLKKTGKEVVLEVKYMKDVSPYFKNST
# T9: GRIP1_5, Q9Y3R0
# T9 sequence (Q9Y3R0 568-668, limits assumed, looked up): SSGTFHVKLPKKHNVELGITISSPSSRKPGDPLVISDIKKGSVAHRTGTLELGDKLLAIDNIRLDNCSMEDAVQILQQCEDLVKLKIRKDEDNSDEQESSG
# T10: APBA2_2, Q99767
# T10 sequence (Q99767 654-744, limits assumed, looked up): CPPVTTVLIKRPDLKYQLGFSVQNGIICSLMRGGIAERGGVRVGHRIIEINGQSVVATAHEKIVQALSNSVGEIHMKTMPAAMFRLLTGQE
# T11: DLG3_1, Q92796
# T11 sequence (Q92796 125-227, limits assumed, looked up): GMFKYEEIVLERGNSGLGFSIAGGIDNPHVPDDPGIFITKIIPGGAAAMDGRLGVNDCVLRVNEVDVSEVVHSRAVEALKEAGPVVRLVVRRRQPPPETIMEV
# T12: TJP3_3, O95049
# T12 sequence (O95049 375-456, limits assumed, looked up): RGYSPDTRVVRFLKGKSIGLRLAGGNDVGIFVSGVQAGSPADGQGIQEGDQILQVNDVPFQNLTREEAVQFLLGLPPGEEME
# T13: SIPA1L2, Q9P2F8
# T13 sequence (Q9P2F8 945-1036, limits assumed, looked up): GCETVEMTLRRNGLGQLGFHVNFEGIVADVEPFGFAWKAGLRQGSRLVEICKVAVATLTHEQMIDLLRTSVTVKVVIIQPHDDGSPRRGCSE
# B1: NLGN4X, Q8N0W4 (peptide)
# chain: LPHGHSTTRV
# B2: SLC22A12, Q96S37 (peptide)
# chain: GNSVLKSTQF
# Biological target: T1, APBA3_1, O96018
# Assay: holdup assay
# Set-up: key: below the threshold = too weak to quantify, mostly under pKd 3.1 to 4
# Conditions: plain residues with an end cap or a label only (N-terminal biotin on a linker: ado-ado)
row,pKd,Binder
1,below the threshold,B1
2,below the threshold,B2

# Biological target: T2, DVL3, Q92997
# Assay: holdup assay
# Set-up: key: below the threshold = too weak to quantify, mostly under pKd 3.1 to 4
# Conditions: plain residues with an end cap or a label only (N-terminal biotin on a linker: ado-ado)
row,pKd,Binder
1,below the threshold,B1
2,below the threshold,B2

# Biological target: T3, SHANK1, Q9Y566
# Assay: holdup assay
# Set-up: key: below the threshold = too weak to quantify, mostly under pKd 3.1 to 4
# Conditions: plain residues with an end cap or a label only (N-terminal biotin on a linker: ado-ado)
row,pKd,Binder
1,4.88,B1
2,4.96,B2

# Biological target: HTRA1, Q92743
# Assay: holdup assay
# Set-up: key: below the threshold = too weak to quantify, mostly under pKd 3.1 to 4
# Conditions: plain residues with an end cap or a label only (N-terminal biotin on a linker: ado-ado)
# HTRA1, Q92743, sequence (Q92743 360-477): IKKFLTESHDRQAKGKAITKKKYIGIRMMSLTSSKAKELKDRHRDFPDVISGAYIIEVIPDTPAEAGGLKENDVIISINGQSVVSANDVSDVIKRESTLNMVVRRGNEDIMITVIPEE
row,pKd,Binder
1,3.72,B1
2,below the threshold,B2

# Biological target: MAGI2_5, Q86UL8
# Assay: holdup assay
# Set-up: key: below the threshold = too weak to quantify, mostly under pKd 3.1 to 4
# Conditions: plain residues with an end cap or a label only (N-terminal biotin on a linker: ado-ado)
# MAGI2_5, Q86UL8, sequence (Q86UL8 915-1017): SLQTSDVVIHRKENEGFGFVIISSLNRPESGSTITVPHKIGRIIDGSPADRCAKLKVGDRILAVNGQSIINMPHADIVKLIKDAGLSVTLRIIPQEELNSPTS
row,pKd,Binder
1,below the threshold,B1
2,4.3,B2

# Biological target: T4, CARD11, Q9BXL7
# Assay: holdup assay
# Set-up: key: below the threshold = too weak to quantify, mostly under pKd 3.1 to 4
# Conditions: plain residues with an end cap or a label only (N-terminal biotin on a linker: ado-ado)
row,pKd,Binder
1,below the threshold,B1
2,below the threshold,B2

# Biological target: DLG5_1, Q8TDM6
# Assay: holdup assay
# Set-up: key: below the threshold = too weak to quantify, mostly under pKd 3.1 to 4
# Conditions: plain residues with an end cap or a label only (N-terminal biotin on a linker: ado-ado)
# DLG5_1, Q8TDM6, sequence (Q8TDM6 617-713): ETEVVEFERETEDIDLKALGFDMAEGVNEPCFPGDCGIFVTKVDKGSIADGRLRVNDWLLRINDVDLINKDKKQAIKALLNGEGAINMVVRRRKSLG
row,pKd,Binder
1,below the threshold,B1
2,below the threshold,B2

# Biological target: GRID2IP_2, A4D2P6
# Assay: holdup assay
# Set-up: key: below the threshold = too weak to quantify, mostly under pKd 3.1 to 4
# Conditions: plain residues with an end cap or a label only (N-terminal biotin on a linker: ado-ado)
# GRID2IP_2, A4D2P6, sequence (A4D2P6 272-370): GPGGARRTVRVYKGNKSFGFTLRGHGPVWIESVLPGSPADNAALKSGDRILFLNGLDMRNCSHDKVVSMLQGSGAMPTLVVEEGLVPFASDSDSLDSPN
row,pKd,Binder
1,3.84,B1
2,below the threshold,B2

# Biological target: T5, SNTB1, Q13884
# Assay: holdup assay
# Set-up: key: below the threshold = too weak to quantify, mostly under pKd 3.1 to 4
# Conditions: plain residues with an end cap or a label only (N-terminal biotin on a linker: ado-ado)
row,pKd,Binder
1,4.27,B1
2,below the threshold,B2

# Biological target: T6, PDZD7_3, Q9H5P4
# Assay: holdup assay
# Set-up: key: below the threshold = too weak to quantify, mostly under pKd 3.1 to 4
# Conditions: plain residues with an end cap or a label only (N-terminal biotin on a linker: ado-ado)
row,pKd,Binder
1,4.28,B1
2,4,B2

# Biological target: Inadl_6, Q8NI35
# Assay: holdup assay
# Set-up: key: below the threshold = too weak to quantify, mostly under pKd 3.1 to 4
# Conditions: plain residues with an end cap or a label only (N-terminal biotin on a linker: ado-ado)
# Inadl_6, Q8NI35, sequence (Q8NI35 1058-1167): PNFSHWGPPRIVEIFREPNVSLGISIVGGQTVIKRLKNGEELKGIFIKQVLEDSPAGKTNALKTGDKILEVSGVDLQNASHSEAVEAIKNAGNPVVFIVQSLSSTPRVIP
row,pKd,Binder
1,below the threshold,B1
2,below the threshold,B2

# Biological target: T7, SYNJ2BP, P57105
# Assay: holdup assay
# Set-up: key: below the threshold = too weak to quantify, mostly under pKd 3.1 to 4
# Conditions: plain residues with an end cap or a label only (N-terminal biotin on a linker: ado-ado)
row,pKd,Binder
1,3.9,B1
2,below the threshold,B2

# Biological target: MAST1, Q9Y2H9
# Assay: holdup assay
# Set-up: key: below the threshold = too weak to quantify, mostly under pKd 3.1 to 4
# Conditions: plain residues with an end cap or a label only (N-terminal biotin on a linker: ado-ado)
# MAST1, Q9Y2H9, sequence (Q9Y2H9 962-1065): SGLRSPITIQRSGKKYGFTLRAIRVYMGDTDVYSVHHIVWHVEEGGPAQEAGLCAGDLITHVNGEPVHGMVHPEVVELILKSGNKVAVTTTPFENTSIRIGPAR
row,pKd,Binder
1,4.7,B1
2,4.26,B2

# Biological target: PDLIM1, O00151
# Assay: holdup assay
# Set-up: key: below the threshold = too weak to quantify, mostly under pKd 3.1 to 4
# Conditions: plain residues with an end cap or a label only (N-terminal biotin on a linker: ado-ado)
# PDLIM1, O00151, sequence (O00151 1-87): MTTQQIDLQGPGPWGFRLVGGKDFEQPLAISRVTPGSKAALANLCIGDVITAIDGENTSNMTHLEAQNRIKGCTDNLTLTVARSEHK
row,pKd,Binder
1,below the threshold,B1
2,below the threshold,B2

# Biological target: T8, SNTA1, Q13424
# Assay: holdup assay
# Set-up: key: below the threshold = too weak to quantify, mostly under pKd 3.1 to 4
# Conditions: plain residues with an end cap or a label only (N-terminal biotin on a linker: ado-ado)
row,pKd,Binder
1,4.05,B1
2,below the threshold,B2

# Biological target: Inadl_4, Q8NI35
# Assay: holdup assay
# Set-up: key: below the threshold = too weak to quantify, mostly under pKd 3.1 to 4
# Conditions: plain residues with an end cap or a label only (N-terminal biotin on a linker: ado-ado)
# Inadl_4, Q8NI35, sequence (Q8NI35 547-651): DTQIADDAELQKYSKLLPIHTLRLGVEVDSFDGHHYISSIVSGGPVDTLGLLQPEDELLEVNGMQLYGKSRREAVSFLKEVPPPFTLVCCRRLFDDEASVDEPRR
row,pKd,Binder
1,below the threshold,B1
2,below the threshold,B2

# Biological target: MAGI2_6, Q86UL8
# Assay: holdup assay
# Set-up: key: below the threshold = too weak to quantify, mostly under pKd 3.1 to 4
# Conditions: plain residues with an end cap or a label only (N-terminal biotin on a linker: ado-ado)
# MAGI2_6, Q86UL8, sequence (Q86UL8 1141-1229): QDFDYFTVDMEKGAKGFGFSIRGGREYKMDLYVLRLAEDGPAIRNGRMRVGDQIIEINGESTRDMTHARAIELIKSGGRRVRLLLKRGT
row,pKd,Binder
1,below the threshold,B1
2,below the threshold,B2

# Biological target: T9, GRIP1_5, Q9Y3R0
# Assay: holdup assay
# Set-up: key: below the threshold = too weak to quantify, mostly under pKd 3.1 to 4
# Conditions: plain residues with an end cap or a label only (N-terminal biotin on a linker: ado-ado)
row,pKd,Binder
1,below the threshold,B1
2,below the threshold,B2

# Biological target: T10, APBA2_2, Q99767
# Assay: holdup assay
# Set-up: key: below the threshold = too weak to quantify, mostly under pKd 3.1 to 4
# Conditions: plain residues with an end cap or a label only (N-terminal biotin on a linker: ado-ado)
row,pKd,Binder
1,below the threshold,B1
2,below the threshold,B2

# Biological target: DLG1_1, Q12959
# Assay: holdup assay
# Set-up: key: below the threshold = too weak to quantify, mostly under pKd 3.1 to 4
# Conditions: plain residues with an end cap or a label only (N-terminal biotin on a linker: ado-ado)
row,pKd,Binder
1,3.82,B1
2,below the threshold,B2

# Biological target: T11, DLG3_1, Q92796
# Assay: holdup assay
# Set-up: key: below the threshold = too weak to quantify, mostly under pKd 3.1 to 4
# Conditions: plain residues with an end cap or a label only (N-terminal biotin on a linker: ado-ado)
row,pKd,Binder
1,below the threshold,B1
2,below the threshold,B2

# Biological target: T12, TJP3_3, O95049
# Assay: holdup assay
# Set-up: key: below the threshold = too weak to quantify, mostly under pKd 3.1 to 4
# Conditions: plain residues with an end cap or a label only (N-terminal biotin on a linker: ado-ado)
row,pKd,Binder
1,below the threshold,B1
2,below the threshold,B2

# Biological target: SCRIB_2, Q14160
# Assay: holdup assay
# Set-up: key: below the threshold = too weak to quantify, mostly under pKd 3.1 to 4
# Conditions: plain residues with an end cap or a label only (N-terminal biotin on a linker: ado-ado)
# SCRIB_2, Q14160, sequence (Q14160 857-960): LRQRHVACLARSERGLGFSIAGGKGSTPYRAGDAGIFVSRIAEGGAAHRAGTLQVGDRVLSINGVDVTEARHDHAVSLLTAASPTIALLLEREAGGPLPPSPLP
row,pKd,Binder
1,below the threshold,B1
2,below the threshold,B2

# Biological target: GRIP2_4, Q9C0E4
# Assay: holdup assay
# Set-up: key: below the threshold = too weak to quantify, mostly under pKd 3.1 to 4
# Conditions: plain residues with an end cap or a label only (N-terminal biotin on a linker: ado-ado)
# GRIP2_4, Q9C0E4, sequence (Q9C0E4 446-548): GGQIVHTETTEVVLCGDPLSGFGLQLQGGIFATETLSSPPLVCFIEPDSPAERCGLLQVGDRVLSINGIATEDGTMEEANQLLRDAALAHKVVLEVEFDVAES
row,pKd,Binder
1,below the threshold,B1
2,below the threshold,B2

# Biological target: T13, SIPA1L2, Q9P2F8
# Assay: holdup assay
# Set-up: key: below the threshold = too weak to quantify, mostly under pKd 3.1 to 4
# Conditions: plain residues with an end cap or a label only (N-terminal biotin on a linker: ado-ado)
row,pKd,Binder
1,below the threshold,B1
2,below the threshold,B2
